The text below walks through data of US20260193348A1 (ANTENGENE BIOLOGICS, published 2026).

The target of assay [1] is T1, GPRC5D on MM.1S cells (human, UniProt Q9NZD1 1-345). The assay can be described thus: cell-based or functional assay.
In a further assay the target is T2, CD3 on Jurkat cells (UniProt P07766 23-207; P04234 22-171; P09693 23-182).
T2 construct: whole, on cells; On the cell, CD3 stands in the TCR-CD3 complex; also called cluster of differentiation 3
The assay can be described thus: FACS on Jurkat cells. How it is done:
The binding affinities of the generated humanized Fab-scFv-Fab bispecific antibodies were determined by FACS analysis. […] (a) Jurkat cells were washed by Staining Buffer (PBS+1% BSA) in round bottom 96-well plate. [0833] (b) Antibody dilutions and cells were added to each well, incubated at 4 degrees for 1 hour. [0834] (c) Cells were spined down at 300 g for 3 minutes, and the supernatants were discarded. [0835] (d) Cells were washed with Staining Buffer. […] (e) Step (d) was repeated and the cells were incubated for 0.5 hours at 4 degrees with secondary antibody in Staining Buffer. [0837] (f) After incubation, step (d)-(e) were repeated. […] (g) Staining Buffer was added and fluorescence signals were recorded by flow cytometry.
The binding affinities of the generated humanized Fab-scFv-Fab bispecific antibodies were determined by FACS analysis. The protocol for FACS analysis is identical to that described in Example 3.2, except that different test antibodies were used.

The target of assay [2] is T1, GPRC5D on MM.1S cells. As to the kind of experiment: cell-based or functional assay. This is another data set of the same source.
In assay [3] the target is T3, GPRC5D on multiple myeloma cells (human, UniProt Q9NZD1 1-345).
T3 construct: whole, on cells; Endogenous GPRC5D on multiple myeloma cell lines; also called G-protein coupled receptor family C group 5 member D; MM.1S, MOLP-8, L363, RPMI8226 cells
T3 sequence (Q9NZD1 whole entry): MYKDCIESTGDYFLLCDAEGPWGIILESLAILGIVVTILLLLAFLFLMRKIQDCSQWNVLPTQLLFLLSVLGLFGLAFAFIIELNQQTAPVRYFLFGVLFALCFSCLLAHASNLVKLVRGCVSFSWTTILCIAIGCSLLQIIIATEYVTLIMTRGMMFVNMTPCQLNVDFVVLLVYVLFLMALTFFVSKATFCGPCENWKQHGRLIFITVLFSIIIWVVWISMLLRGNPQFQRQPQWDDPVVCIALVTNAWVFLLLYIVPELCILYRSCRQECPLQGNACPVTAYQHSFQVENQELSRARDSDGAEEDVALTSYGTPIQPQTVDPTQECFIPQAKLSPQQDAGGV
The assay can be described thus: FACS on MM.1S cells.

The target of assay [4] is T4, CD3 on T cells / Jurkat cells (human, UniProt P07766 23-207; P04234 22-171; P09693 23-182).
T4 construct: whole, on cells; Native CD3 complex on CD3+ T cells isolated from normal donors or on Jurkat cells; also called human CD3; CD3+ T cells
T4 sequence (P07766 23-207, chain 1 of 3): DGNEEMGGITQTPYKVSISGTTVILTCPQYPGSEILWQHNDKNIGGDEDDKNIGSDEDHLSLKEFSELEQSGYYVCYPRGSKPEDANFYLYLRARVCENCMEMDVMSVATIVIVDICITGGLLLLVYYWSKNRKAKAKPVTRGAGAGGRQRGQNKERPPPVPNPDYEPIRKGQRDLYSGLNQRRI
T4 sequence (P04234 22-171, chain 2 of 3): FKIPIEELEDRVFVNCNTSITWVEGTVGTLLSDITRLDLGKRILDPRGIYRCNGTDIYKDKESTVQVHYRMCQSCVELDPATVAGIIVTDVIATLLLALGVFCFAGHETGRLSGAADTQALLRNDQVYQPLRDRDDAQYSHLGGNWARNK
T4 sequence (P09693 23-182, chain 3 of 3): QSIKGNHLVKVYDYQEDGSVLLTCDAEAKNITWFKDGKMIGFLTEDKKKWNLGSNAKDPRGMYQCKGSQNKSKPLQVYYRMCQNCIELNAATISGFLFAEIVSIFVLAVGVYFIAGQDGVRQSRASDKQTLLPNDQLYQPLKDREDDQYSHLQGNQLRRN
As to the kind of experiment: FACS on Jurkat cells.

T2 sequence (P07766 23-207, chain 1 of 3): as the sequence (P07766 23-207, chain 1 of 3) above
T2 sequence (P04234 22-171, chain 2 of 3): as the sequence (P04234 22-171, chain 2 of 3) above
T2 sequence (P09693 23-182, chain 3 of 3): as the sequence (P09693 23-182, chain 3 of 3) above
T1 sequence (Q9NZD1 whole entry): as the sequence (Q9NZD1 whole entry) above

B1: Bis-40E9-L2H3-D56G.H (bispecific antibody)
heavy 1: not shown
heavy 2: EVQLVQSGAEVKKPGASVKVSCKASGYTFTSYVIHWVRQAPGQGLEWMGYFNPYNDGTKYNEEFKGRVTLTSDKSTSTAYMELRSLRSDDTAVYYCARGGVRRYFDVWGQGTTVTVSSASTKGPSVFPLAPSSKSTSGGTAALGCLVKDYFPEPVTVSWNSGALTSGVHTFPAVLQSSGLYSLSSVVTVPSSSLGTQTYICNVNHKPSNTKVDKKVEPKSCGGGGSGGGGSEVQLVQSGAEVKKPGSSVKVSCKASGYTFSSYVIHWVRQAPGQCLEWMGYINPYNGVIKYNEKFKGRVTLTSDKSTSTAYMELSSLRSEDTAVYYCARDSYYSYDGFAYWGQGTLVTVSSGGGGSGGGGSGGGGSGGGGSEIVLTQSPDFQSVTPKEKVTITCSASSSVSYMHWYQQKPDQSPKRLIYDTSKLASGVPSRFSGSGSGTDFTLTINSLEAEDAATYYCQQWSSNPPTFGCGTKVEIKGGGGSGGGGSDKTHTCPPCPAPEAAGGPSVFLFPPKPKDTLMISRTPEVTCVVVDVSHEDPEVKFNWYVDGVEVHNAKTKPREEQYNSTYRVVSVLTVLHQDWLNGKEYKCKVSNKALPAPIEKTISKAKGQPREPQVCTLPPSREEMTKNQVSLSCAVKGFYPSDIAVEWESNGQPENNYKTTPPVLDSDGSFFLVSKLTVDKSRWQQGNVFSCSVMHEALHNHYTQKSLSLSPGK
light: DIQMTQSPSSLSASVGDRVTITCRASQDIGSNLNWLQQKPGKAIKRLIYATFGLDSGVPSRFSGSRSGTDFTLTISSLQPEDFATYYCQQYASFPYTFGGGTKVEIKRTVAAPSVFIFPPSDEQLKSGTASVVCLLNNFYPREAKVQWKVDNALQSGNSQESVTEQDSKDSTYSLSSTLTLSKADYEKHKVYACEVTHQGLSSPVTKSFNRGEC
notes: Fab-scFv-Fab format with LALA mutations
As to B1, in the assay with GPRC5D on MM.1S cells [1], the “Ratio of EC50 (relative to ATG-Bis-40E9), luciferase assay on MM.1S” value worked out at 0.81 ratio and the “Ratio of Top RLU (relative to ATG-Bis-40E9), luciferase assay on MM.1S” value is 1.01 ratio. Besides, in the assay with CD3 on Jurkat cells, the “Ratio of EC50 (relative to ATG-Bis-40E9)” value stood at 2.41 ratio and the “Ratio of Top MFI (relative to ATG-Bis-40E9)” value stood at 0.55 ratio. Moreover, in the assay with GPRC5D on MM.1S cells [2], the “Ratio of IC50 (relative to ATG-Bis-40E9), MM.1S cytotoxicity” value (“Ratio of IC50 (relative to ATG-Bis-40E9)” below) is 0.99 ratio and the “Ratio of Top cytotoxicity (relative to ATG-Bis-40E9), MM.1S cytotoxicity” value was determined as 1 ratio.

B2: Bis-40E9-L2H3-N55S.H (bispecific antibody, human IgG1, kappa, L234A L235A)
heavy 1: not shown
heavy 2: EVQLVQSGAEVKKPGASVKVSCKASGYTFTSYVIHWVRQAPGQGLEWMGYFNPYNDGTKYNEEFKGRVTLTSDKSTSTAYMELRSLRSDDTAVYYCARGGVRRYFDVWGQGTTVTVSSASTKGPSVFPLAPSSKSTSGGTAALGCLVKDYFPEPVTVSWNSGALTSGVHTFPAVLQSSGLYSLSSVVTVPSSSLGTQTYICNVNHKPSNTKVDKKVEPKSCGGGGSGGGGSEVQLVQSGAEVKKPGSSVKVSCKASGYTFSSYVIHWVRQAPGQCLEWMGYINPYSDVIKYNEKFKGRVTLTSDKSTSTAYMELSSLRSEDTAVYYCARDSYYSYDGFAYWGQGTLVTVSSGGGGSGGGGSGGGGSGGGGSEIVLTQSPDFQSVTPKEKVTITCSASSSVSYMHWYQQKPDQSPKRLIYDTSKLASGVPSRFSGSGSGTDFTLTINSLEAEDAATYYCQQWSSNPPTFGCGTKVEIKGGGGSGGGGSDKTHTCPPCPAPEAAGGPSVFLFPPKPKDTLMISRTPEVTCVVVDVSHEDPEVKFNWYVDGVEVHNAKTKPREEQYNSTYRVVSVLTVLHQDWLNGKEYKCKVSNKALPAPIEKTISKAKGQPREPQVCTLPPSREEMTKNQVSLSCAVKGFYPSDIAVEWESNGQPENNYKTTPPVLDSDGSFFLVSKLTVDKSRWQQGNVFSCSVMHEALHNHYTQKSLSLSPGK
light: DIQMTQSPSSLSASVGDRVTITCRASQDIGSNLNWLQQKPGKAIKRLIYATFGLDSGVPSRFSGSRSGTDFTLTISSLQPEDFATYYCQQYASFPYTFGGGTKVEIKRTVAAPSVFIFPPSDEQLKSGTASVVCLLNNFYPREAKVQWKVDNALQSGNSQESVTEQDSKDSTYSLSSTLTLSKADYEKHKVYACEVTHQGLSSPVTKSFNRGEC
For the molecule B2, in the assay with GPRC5D on MM.1S cells [1], the “Ratio of EC50 (relative to ATG-Bis-40E9), luciferase assay on MM.1S” value came out at 1.33 ratio and the “Ratio of Top RLU (relative to ATG-Bis-40E9), luciferase assay on MM.1S” value amounted to 0.75 ratio. Besides, the “Ratio of EC50 (relative to ATG-Bis-40E9)” value with CD3 on Jurkat cells was found to be 167 ratio. In the assay with GPRC5D on MM.1S cells [2], the “Ratio of IC50 (relative to ATG-Bis-40E9)” value came to 1.06 ratio and the “Ratio of Top cytotoxicity (relative to ATG-Bis-40E9), MM.1S cytotoxicity” value was found to be 1 ratio.

B3: Bis-40E9-L2H3-D105R.H (bispecific antibody)
heavy 1: not shown
heavy 2: EVQLVQSGAEVKKPGASVKVSCKASGYTFTSYVIHWVRQAPGQGLEWMGYFNPYNDGTKYNEEFKGRVTLTSDKSTSTAYMELRSLRSDDTAVYYCARGGVRRYFDVWGQGTTVTVSSASTKGPSVFPLAPSSKSTSGGTAALGCLVKDYFPEPVTVSWNSGALTSGVHTFPAVLQSSGLYSLSSVVTVPSSSLGTQTYICNVNHKPSNTKVDKKVEPKSCGGGGSGGGGSEVQLVQSGAEVKKPGSSVKVSCKASGYTFSSYVIHWVRQAPGQCLEWMGYINPYNDVIKYNEKFKGRVTLTSDKSTSTAYMELSSLRSEDTAVYYCARDSYYSYRGFAYWGQGTLVTVSSGGGGSGGGGSGGGGSGGGGSEIVLTQSPDFQSVTPKEKVTITCSASSSVSYMHWYQQKPDQSPKRLIYDTSKLASGVPSRFSGSGSGTDFTLTINSLEAEDAATYYCQQWSSNPPTFGCGTKVEIKGGGGSGGGGSDKTHTCPPCPAPEAAGGPSVFLFPPKPKDTLMISRTPEVTCVVVDVSHEDPEVKFNWYVDGVEVHNAKTKPREEQYNSTYRVVSVLTVLHQDWLNGKEYKCKVSNKALPAPIEKTISKAKGQPREPQVCTLPPSREEMTKNQVSLSCAVKGFYPSDIAVEWESNGQPENNYKTTPPVLDSDGSFFLVSKLTVDKSRWQQGNVFSCSVMHEALHNHYTQKSLSLSPGK
light: DIQMTQSPSSLSASVGDRVTITCRASQDIGSNLNWLQQKPGKAIKRLIYATFGLDSGVPSRFSGSRSGTDFTLTISSLQPEDFATYYCQQYASFPYTFGGGTKVEIKRTVAAPSVFIFPPSDEQLKSGTASVVCLLNNFYPREAKVQWKVDNALQSGNSQESVTEQDSKDSTYSLSSTLTLSKADYEKHKVYACEVTHQGLSSPVTKSFNRGEC
notes: as for B1
Take B3: in the assay with GPRC5D on MM.1S cells [1], the “Ratio of EC50 (relative to ATG-Bis-40E9), luciferase assay on MM.1S” value was found to be 1.32 ratio and the “Ratio of Top RLU (relative to ATG-Bis-40E9), luciferase assay on MM.1S” value turned out to be 0.79 ratio. For the same molecule, in the assay with CD3 on Jurkat cells, the “Ratio of EC50 (relative to ATG-Bis-40E9)” value is 4.53 ratio and the “Ratio of Top MFI (relative to ATG-Bis-40E9)” value is 1.17 ratio. Further, in the assay with GPRC5D on MM.1S cells [2], the “Ratio of IC50 (relative to ATG-Bis-40E9)” value turned out to be 0.86 ratio and the “Ratio of Top cytotoxicity (relative to ATG-Bis-40E9), MM.1S cytotoxicity” value stood at 1.01 ratio.

B4: Bis-108+147-S102Q.H (bispecific antibody, V domains shown)
VH 1: EVQLVQSGAEVKKPGASVKVSCKASGYTFTSYVIHWVRQAPGQGLEWMGYFNPYNDGTKYNEEFKGRVTLTSDKSTSTAYMELRSLRSDDTAVYYCARGGVRRYFDVWGQGTTVTVSS
VL 1: DIQMTQSPSSLSASVGDRVTITCRASQDIGSNLNWLQQKPGKAIKRLIYATFGLDSGVPSRFSGSRSGTDFTLTISSLQPEDFATYYCQQYASFPYTFGGGTKVEIK
VH 2: EVQLVQSGAEVKKPGSSVKVSCKASGYTFTSYWMHWVRQAPGQCLEWMGNINPSSGATNYNEKFKSRVTLTVDKSTSTAYMELSSLRSEDTAVYYCARDRSQQYYFDYWGQGTTVTVSS
VL 2: DIVMTQSPDSLAVSLGERATINCKSSQSLLNSRSRKNYLAWYQQKPGQPPKLLIYWASTRESGVPDRFSGSGSGTDFTLTISSLQAEDVAVYYCTQSYTLRTFGCGTKVEIK
notes: Fab-scFv-Fab (2+1): first VH/VL = anti-GPRC5D Fabs, second VH/VL = anti-CD3 scFv
Turning to B4, the binding result in assay [3] and in assay [4] was “binds” in each case.
